# Test results published in patent publication US20260085338.
# What was measured:
# [1] = system: 67PfluR64PP RNA polymerase
substance,measurement,setting,value
phi15 lysozyme (G3RQ),"dynamic range of the system (fold induction), lysozyme integrated in PP4305, P. putida SEM11",phi15 RNA polymerase,"the dynamic range of the system increased from 33 to 107- and 70-fold, respectively"
same,"dynamic range of the system (fold induction), lysozyme integrated in PP5388, P. putida SEM11",phi15 RNA polymerase,"the dynamic range of the system increased from 33 to 107- and 70-fold, respectively"
PPPL-1 lysozyme,"reduction of msfGFP output upon lysozyme induction (P. putida, 4 mM Rha)",PPPL-1 RNA polymerase,PPPL-1 (-39%)
Pf-10 lysozyme,"reduction of msfGFP output upon lysozyme induction (P. putida, 4 mM Rha)",Pf-10 RNA polymerase,Pf-10 (-80%)
67PfluR64PP lysozyme,"reduction of msfGFP output upon lysozyme induction (P. putida, 4 mM Rha)",[1],67PfluR64PP (-51%)
same,"reduction of leaky msfGFP expression caused by the phi15 RNAP (P. putida, 4 mM Rha)",phi15 RNA polymerase,The 67PfluR64PP lysozyme reduced the leaky expression by 58%
phi15 lysozyme (wild-type),"reduction of msfGFP output upon lysozyme induction (P. putida, 4 mM Rha)",phi15 RNA polymerase,The phi15 lysozyme caused only a -30% reduction of the msfGFP output
